Data from the supplement of paper PMC10567573.
± gives the standard deviation.

Experiment: protein stability index of a GFP-peptide fusion (GPS, HEK-293T) (PSI 1-6); higher = more stable
[1] = treatment: DMSO, c terminus: a fixed tail appended
[2] = treatment: MLN4924 1 uM, 8 h, c terminus: a fixed tail appended
[3] = treatment: DMSO, c terminus: native
[4] = treatment: MLN4924 1 uM, 8 h, c terminus: native
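Note: 24-mer peptide tiles fused after GFP, lentivirally expressed, FACS-sorted into six equal bins by GFP/DsRed ratio, decoded by Illumina sequencing, PSI is the read-weighted mean bin number.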

Sequence	protein stability index [1]	protein stability index [2]	protein stability index [3]	protein stability index [4]
DITEGDRKPDYTAYVAMIPQCIKE [ATF4]	3.28 ± 0.27	3.38 ± 0.37		
EYTLTGLKFDMKYMNFRVKACNKA [FSD1]	2.79 ± 0.12	2.77 ± 0.45		
SFSVLNWDQVSRLHEVLTEVVPIH [TENT5C]	2.26 ± 0.28	2.3 ± 0.27		
WVLSIDGENAGSLTHIEAQNKIRA [PDLIM7]	3.02 ± 0.33	3.28 ± 0.29		
HLQEYAGNFQGIRFHYDRNPGTDA [FATE1]	3.37 ± 0.39	3.46 ± 0.3		
IYNSHLVVHQRVHSGEKPYKCSDC [ZNF232]	2.9 ± 0.23	3.02 ± 0.28		
LRAGSSEFDSEHNLTSNEGHSLKN [RASAL3]	4.67 ± 0.42	4.87 ± 0.64		
YNISEFTRRHPGGSRVISHYAGQD [FADS1]	3.54 ± 0.15	3.42 ± 0.26		
ASWAKPHYEFNLSRMKFRGNGALS [LCOR]	2.56 ± 0.19	2.71 ± 0.24		
YRQSSFPHCSDLMPSGSEEKILRE [KCNA4]	4.25 ± 0.29	4.26 ± 0.14		
EEWLLVGTKQGHLLLYRIRKDVGC [VPS39]	3.08 ± 1.3	2.48 ± 0.5		
ACGDFFTACLTDRGIIMTFGSGSN [NEK8]	2.66 ± 0.83	2.78 ± 0.64		
ISPKARCLIRSLLRREPSERLTAP [TRIB1]	2.22 ± 0.24	2.33 ± 0.39		
TVMILPVTHTEISPEQQFDRSVQR [TMEM175]	3.64 ± 0.28	3.76 ± 0.16		
EVMESEEFMLLPANQLIDIISSDE [KLHL20]	4.54 ± 0.23	4.64 ± 0.32		
ITIGYRVYHSYDLPWFRTLSWYFL [CDS1]	2.92 ± 0.42	3.1 ± 0.6		
IMGNLLIIVTIMASQSLGSPMYFF [OR4A15]	3.35 ± 0.29	3.52 ± 0.3		
DSKHVVLPVDDDSDLNVVASFDRR [RBBP5]	4.73 ± 0.39	5.21 ± 0.23		
LNVRGGKPDDITVLLSIVAEYTD [PPTC7]			3.45 ± 0.95	2.5 ± 0.44
VVTLWYRAPEVLLQSTYATPVDMW [CDK4]	3.15 ± 0.61	3.07 ± 0.68		
VLICVIVFIIILFIVLFATGAFS [VAMP8]			4.42 ± 0.23	4.34 ± 0.15
PTLDAPGGRALVVRKVPPGYSIKV [SMAD6]	2.83 ± 0.17	3.17 ± 0.19		
ESGEHFRSLLGYDPQILQMLKEEH [RAD54B]	3.77 ± 0.35	3.56 ± 0.55		

Sequence	protein stability index [1]	protein stability index [2]	protein stability index [3]	protein stability index [4]
LKKAKVQVERMREVNSRCYQPEPF [FBXO34]	2.79 ± 0.61	2.84 ± 0.16		
GTAGPLALARDLLSETADPFFVLN [GMPPB]	3.18 ± 0.31	3.23 ± 0.27		
QAEFTAMRDQYMRAGEGFIICYSI [RIT1]	3.38 ± 0.48	3.04 ± 0.8		
SKPKTFQAYLDDCHRRYSCAHCRA [YPEL3]	2.41 ± 0.55	3.04 ± 0.59		
WGEMTLSLFSLLIAAAVYIMDTVG [SLC19A2]	2.51 ± 0.44	2.46 ± 0.31		
SGGSYRDSYESYGNSRSAPPTRGP [RBMX]	4.3 ± 0.27	3.83 ± 0.38		
DEIYRVLRYVNSTRAPQRAHEVLQ [FBXO28]	2.43 ± 0.28	2.44 ± 0.33		
SLLRGFLLQNEFVGFMWRQRGRVI [MCOLN1]	2.29 ± 0.2	2.13 ± 0.2		
EASNFQMDRKTRFIIHGFIDKGDE [PNLIPRP1]	3.26 ± 0.21	3.27 ± 0.27		
PDDFVPPVPPPSYFATFYSCTPRM [FAM189A2]	2.65 ± 0.15	2.7 ± 0.32		
SIAPPEAEGVVLSDSPDAADSTSF [PPTC7]	5.34 ± 0.61	5.29 ± 0.76		
QYFVVDPMAEYNMPQYILREFKVT [PTPRD]	2.48 ± 0.56	2.15 ± 0.16		
SRVTAFLDDLSQKLKPLGEAEREF [NLN]	2.84 ± 0.07	3.12 ± 0.51		
FKAYIKIYQGEDLPHPKSMLQATA [ATL3]	2.78 ± 0.35	2.5 ± 0.57		
EMIQTSKTEITDLRRTMQELEIEL [KRT15]	3.65 ± 0.25	3.65 ± 0.13		
PFAFVEFEDPRDAEDAVYGRDGYD [SRSF1]	4.76 ± 0.15	4.64 ± 0.2		
YSAYIRRCACAASSDESPGSKCSP [TTC32]	2.25 ± 0.23	2.85 ± 0.16		
CATGLLGSAPFLFLSLACARGSIV [SPNS1]	3.02 ± 0.21	2.88 ± 0.28		
LDPMKNVTCENGLPAVVSCVPGQV [LOXL2]		4.36 ± 0.06		
LPVYLKKDPAYFYGYVYFRQVRDK [DENND6A]	2.59 ± 0.57	2.53 ± 0.47		
YLNEYEAEKIEYNESMKAYHNSPA [SMARCE1]	3.95 ± 0.4	3.98 ± 0.31		
QLKAVHEQLAALSQAPVNKPKKKK [BRD3]	4.51 ± 0.44	4.6 ± 0.19		
VCSILLGTSTLLVWVGVIRYLTFF [MCOLN1]	3.3 ± 0.42	3.02 ± 0.079		

Sequence	protein stability index [1]	protein stability index [2]	protein stability index [3]	protein stability index [4]
PTQEEWRQVVDILWSDPMAQEGCK [PPEF2]	3.96 ± 0.39	4.21 ± 0.079		
PGQVAGADFESEDEGEEFDDWEDD [EID1]	5.52 ± 0.59	5.59 ± 0.2		
MRILAHGELVLATAISSFTRHVFT [TLE6]	3.1 ± 0.61	2.76 ± 0.35		
KQEQSIISEYEKSLQFDEKCLSIM [RPAIN]	3.67 ± 0.12	3.69 ± 0.23		
EDESQSEEENDYRNLDASPTYKGL [CEP70]	5.27 ± 0.23	5.41 ± 0.15		
NLYEEGRTAFLWRGNVVLRAQMIR [TRIM43]	2.22 ± 0.2	2.06 ± 0.21		
RDEAIYECVASNNVGEISVSTRLT [PTPRD]	4.03 ± 0.34	3.91 ± 0.23		
RTCFSPASDGSDFTFLRPLSVQQP [PCDHGC5]	2.77 ± 0.23	2.78 ± 0.22		
LEIELQSQLSMKAGLENTVAETEC [KRT13]	5.02 ± 0.43	5.03 ± 0.11		
LRADQEKERKKREERERKRRKEEE [FAF2]	5.435 ± 0.02	5.35 ± 0.31		
SSIECYDPIIDSWEVVTSMGTQRC [KLHL12]	2.95 ± 0.2	3.24 ± 0.49		
MQVHKETIDAVPNAIPGRTDIELE [ZNF207]	4.97 ± 0.15	5.17 ± 0.18		
VSQAVEGPEELSRSSSESKLPSSG [RIPK4]	5.21 ± 0.62	5.06 ± 0.58		
NHPDLAKDLTEYLKVRSHDPEEAI [PDS5B]	4.7 ± 0.23	4.43 ± 0.59		
DAVFMKDGFFYFFHGTRQYKFDPK [MMP1]	2.25 ± 0.33	2.1 ± 0.13		
PESVERLTGVSISQVNHKPLRTA [FLOT1]			2.66 ± 0.69	3.11 ± 0.18
VTGREGFPTDAPYPTTLGKDRECQ [ZNF8]	4.74 ± 0.13	4.8 ± 0.32		
VFFAYAQLGYLLFGTQVENFSTFI [PKD2L1]	3.33 ± 0.054	2.71 ± 0.72		
ECEKSALTPGFSDNAIMLFSPDFT [FAN1]	3.49 ± 0.19	3.79 ± 0.26		
SDRRKEKDPKAGDSKSGGSGSESD [DVL3]	5.69 ± 0.32	5.55 ± 0.15		
TLPVLEASSWKKQVSHDFLETRFK [FBXO34]	3.16 ± 0.66	3.1 ± 0.41		
TSGGSNIIYVASNHFVWRLIPVPM [VPS39]	2.44 ± 0.36	2.51 ± 0.74		
GGYRPAEDKIFPVPEEPPVKKLMR [ZBED1]	3.99 ± 0.13	4.36 ± 0.3		

Sequence	protein stability index [1]	protein stability index [2]	protein stability index [3]	protein stability index [4]
TEQGFGEDLEDLGAVAPPVSGDLT [NFE2L1]	5.388 ± 0.027	5.26 ± 0.55		
GPNPSKLIQQFLTLRPDQQLHIFN [CDS2]	2.16 ± 0.42	2.09 ± 0.25		
PLMVKGFRDAAEEGGTAVTGGQTV [SEPHS2]	5.05 ± 0.3	5.16 ± 0.13		
STIVVMLTKLREMGREKCHQYWPA [PTPRD]	2.55 ± 0.22	2.63 ± 0.44		
ATFHVGGGPAQNAPHQQPPAPPSD [TFE3]	4.86 ± 0.16	4.84 ± 0.26		
KAAEGGLSSPEFSELCIWLGSQIK [FAM98B]	2.08 ± 0.12	2.03 ± 0.4		
LLERQVEMTPEKFSVLMEKLCKKG [FANCE]	3.03 ± 0.26	3.36 ± 0.19		
ASGPINFTMFLNLFGEKLSGTDAE [MYL5]	2.58 ± 0.28	2.6 ± 0.4		
ASRQKTSLGIELHCNVSNILHMNG [ZNF396]	1.97 ± 0.23	2.12 ± 0.14		
IGAFLNLVVLRFLTMNSEDERRDA [KCNK9]	3.27 ± 0.77	3.02 ± 0.6		
LQNQNFPYPVLFHNIFLLGGSSTS [NLN]	2.15 ± 0.92	2.33 ± 0.4		
EGVDIKNGTEDLPYAMKPIDYYTE [NSDHL]	4.72 ± 0.25	4.76 ± 0.27		
PLEGSAKGKVQAELSQPLTAGGAI [RBBP5]	4.88 ± 0.19	4.72 ± 0.35		
SSYPVCVSKVVKGGSSGKGTTLRG [OAS1]	4.11 ± 0.39	4.18 ± 0.19		
GSPDDSHPKDGPSPGGTLMDLSER [DLC1]	5.54 ± 0.32	5.48 ± 0.28		
WVNDPQRMDKRTLALLVLAHSSDV [GOLPH3L]	2.19 ± 0.3	2.18 ± 0.2		
PSNSSSLTLSGIKEDNSLLNQGFL [MYBL2]	3.57 ± 0.35	3.81 ± 0.45		
ECSNIPLSQPQQGEAMLANFKPRG [GAN]	3.5 ± 0.9	3.97 ± 0.34		
LQLFHQDGTFSPVTLALFFVLYFL [CLCN6]	2.45 ± 0.64	2.13 ± 0.47		
TKPKTTAIQGISEKEKAEIEAKEA [DLC1]	5.56 ± 0.25	5.35 ± 0.35		
